Measurements reported in article doi:10.1101/2024.04.03.587999 (bioRxiv, 2024).

Molecular target: T1, Outer membrane protein A of Acinetobacter baumannii (recombinant AbOmpA) (Acinetobacter baumannii, UniProt Q6RYW5 20-356)
T1 sequence (looked up): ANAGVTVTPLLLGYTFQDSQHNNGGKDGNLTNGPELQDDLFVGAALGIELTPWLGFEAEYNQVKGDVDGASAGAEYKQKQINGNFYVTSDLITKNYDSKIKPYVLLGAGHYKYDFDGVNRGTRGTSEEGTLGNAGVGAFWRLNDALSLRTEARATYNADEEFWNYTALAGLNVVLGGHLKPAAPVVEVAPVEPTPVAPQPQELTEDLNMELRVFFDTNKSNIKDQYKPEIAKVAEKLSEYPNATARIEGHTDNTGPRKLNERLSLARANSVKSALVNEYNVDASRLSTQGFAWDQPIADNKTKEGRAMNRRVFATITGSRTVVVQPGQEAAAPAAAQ
Assay: SPR

With QMGFMTSPKHSV [P92] the Kd was 7.84 nM.
